Laboratory results from the DeepSol protein solubility set.

test: soluble on expression in E. coli; label from the status in PepcDB or PDB records

| Sequence | soluble on expression in E. coli |
| --- | --- |
| MRNPIMVTTEVAGEPPGQGRKWAAHGTMAAPRVHTDYHPGGGSACSSVKVRSHVGHTGVFFFVDQDPLAVSLTSQSLIPPLIKPGLLKAWGFLLLCAQPSANGHSLCCLLYTDLVSSHELSPFRALCLGPSDAPSACASCNCLASTYYLLEHHHHHH | not soluble |
| MTEEMNQIDVQVPEVGDVVKGIVTKVEDKHVDVEIINVKQSGIIPISELSSLHVEKASDVVKVDDELDLKVTKVEDDALILSKRAVDADRAWEDLEKKFETKEVFEAEVKDVVKGGLVVDIGVRGFIPASLVEAHFVEDFTDYKGKTLSLLVVELDRDKNRVILSHRAVVESEQANKKQELLQSLEVGSVLDGKVQRLTDFGAFVDIGGIDGLVHISQLSHSHVEKPSDVVEEGQEVKVKVLSVDRDNERISLSIKDTLPGPWNQIGEKVKPGDVLEGTVQRLVSFGAFVEILPGVEGLVHISQISNKHIGTPHEVLEEGQTVKVKVLDVNENEERISLSMRELEETPKADQEDYRQYQAKEETSTGFQLGDLIGDKLNKLKLEHHHHHH | soluble |
| MANDIVPQDENGAGMPVEFDASTITGEEKAAILLLSLNEQDAAGIIRHLEPKQVQRVGSAMARAKDLSQEKVSAVHRTFLEDIQKYTNIGMGSEDFMRNALVAALGEDKANNLVDQILLGTGSKGLDSLKWM | not soluble |
| MASSLHSPGQAFRAALAKENPLQIVGAINANHALLAQRAGYQAIYLSGGGVAAGSLGLPDLGISTLDDVLTDIRRITDVCPLPLLVDADIGFGSSAFNVARTVKSIAKAGAAALHIEDQVGAKRCGHRPNKAIVSKEEMVDRIRAAVDARTDPNFVIMARTDALAVEGLEAALDRAQAYVDAGADMLFPEAITELSMYRRFADVAQVPILANITEFGATPLFTTDELRSAHVAMALYPLSAFRAMNRAAEKVYTVLRQEGTQKNVIDIMQTRNELYESINYYQFEEKLDALYRNKKSLEHHHHHH | soluble |
| MGSDKIHHHHHHMSEKSASNNKAEFKRQSSPFREIISADHPIYKPAKGRYWLYVALPCPWAQRTLITRALKGLAPIIGCSVAHWHLDDKGWRFLEEGDGKTNERHWFDIAGGISSVNLNTSTPVANIPNNAHRLLVDGTDEPHYGYKRLSDFYFKTKPDYKGRFTVPVLWDLETCTIVNNESSDIIGIMNSAAFDEFVGEEYRQVRLVPRSLEAQITEFNSWVYDKINNGVYKAGFAECAEVYEREVTSLFQYLDKLENLLDKKYTDLEAEYGKNNKDKILDRYFAIGDTLTEADVRLYPTIVRFDVVYHQHFKCNLATIRDDYSRIHTWLKNIYWRHEAFQRTTDFTHIKLGYTRSQPRVNPIGITPLGPKPDIRPP | not soluble |
| MKRKVSVYDSSKDKTLGQVVKGESPIWIRVAMAILRVWFFIYDCLNYLPYQLFNSPTEKLRKSERVKANWVDDRDGPIRNIQGHASETFPGKDTVDKVWRKCVELYDESPCLGTRQLIEVHEDKQPGGRVFEKWHLGEYVWQSYKEVETQVARLAAGIKDLAHEEQNPKVVIFAETRADWLITALACFRANVTIVTVYATLGEDAIAHAIGETEATILVTSSELLPKIVTLGKKCPTLKTLIYFAPVDQKAPAPELAPFRDQFKHVLSLSGLLTRNQEQVKESTAVKSDIALIMYTSGTTGQPKGVILLHQNVVAALLGQGDGVGIICNADTYIGYLPLAHILELDAELTCLTKGAKVGYSSPLTLHDRASKIQKGTHGDCHALRPTLMAAVPAIMDRIFKAVSEEVAASPRFMQELFKLNYERKRSRYLEGYCSPFLDRIVFKKIRRLLGGKLRGVLSGGAPLNAETQRFMNICMCCPVVQGYGLTETCGAACVADINDLSTGTVGPPVRCSDIALREWSEGGYSPFNDPPQGEILISGENISPGYYKQPEKTAEDFITYKGKVYFATGDIGQKRDDGSLLIIDRKKDLVKLQHGEYVSLAKVECALLNCPIVDNICVYGSGMEDSVVALVVPNQKHLEKIAEAEGVSTSEMKTMCEDKKVIAAYKKQLEEHAKKSKLSRSEIPAAIHLCPEIWTPDTGLLTEALKLKRKPIQMAYQKTLDDLYKQLKKN | not soluble |
| MSLQVSQYLYQNAQSIWGDCISHPFVQGIGRGTLERDKFRFYIIQDYLFLLEYAKVFALGVVKACDEAVMREFSNAIQDILNNEMSIHNHYIRELQITQKELQNACPTLANKSYTSYMLAEGFKGSIKEVAVAVLACGWSYLVIAQNLSQIPNALEDAFYGHWIKGYSSKEFQACVTWNINLLDSLALASSKQEIEKLKEIFIATSEYEYQFWDMAYQSEGGSHHHHHH | soluble |
| NELSQERTARLNELQRALVMMDSDFRQIALRQTRTNGEEPSKKLLHWADYLLDSDNKGIMFARLGWHNPQQQFPRGEVTKVGYRIKDERLERVWWRYPDTPAGQEGVVTPLLSDVEELNVRFYDGKQWINEWSNELTLPAAISVELTLKDYGKIARTYLTPEGN | soluble |
| MVRTVKSYNGEADDLAGQIHTLPAVWVTYGGSKVEPASTGGVCGRYQDTAEFVVMVAARNLRNEQAQRQGGIDSREIGSNDLIRAVRRLLDGQRLGFADSRGLVPKAVRAIANHVLVQNAAVSIYAVEYAIRFNTCGLENDRYPERTDNPDDPNHIFTKYQGTLSEPWPDFEGLDGKIYDPQSADEIPVNLTLKDKQ | not soluble |
| MAHHHHHHMATAADYVGKNCPYCGAIDSIETDEARGEAACVNCATVVAMGLEENVATRFEKDATYADVDRGGNVGWDPENGGAIGRATARNAGLTREEAAAAAAGLLRHPNAAASVTSAGPFGDTAKYAKTRLHPRMSAQLEVFFRLSRRHDEAILRDAIALAKHFVGFRRERGMRVEHQTEVAAASVMLAAEHLGQPIPLSEMRVLDGTLKDVESRRQEILDATNLGEEMAQMTKQYAPNLIHYYVRLLQLPLICYEMPCLALFRAIRQCESKPDPGASELAVFVEAEKVVMAVLLARTESRLQWPNKPPPPADPSAEPSRAILYSSFASRAHLQPARVEKLMRVAERSVPLIQPEFERLMQTPEFAVAAVHTMGEAVVSMTAKTEDTKSYAPVKSDPIPTSAPSAPNIARGNRKRSRSRSTTPQVPPSSASQER | not soluble |
| MGSDKIHHHHHHMKKLLLTAAITLTMPFAAHAGSEFVEGDATLAGEAELGATLTTGNTDTSSFKARLALKQELGDWENEYVFEGLYKEDTEEVTAKRYFLGVQGDYQINDVSYLFANTNYEVDPFTGYDFTSTTSAGYGHRFIDTDRMSLKAEAGPGYIYQQLDEESALAEGYDSDDSVVAHAVIDFQTKISDSSKFQQKFVADWGSKLDARSETSLTANIVGALAMKFAVIVRYNSEPLDDKESTDTETNMTLLYAF | not soluble |
| GSSLASQGQNLSTVLANLTPEQQKNVLGERLYNHIVAINPAAAAKVTGMLLEMDNGEILNLLDTPGLLDAKVQEALEVLNRHMNV | soluble |
| MSLEKELVTWFNILNKPPLEYLKGVEDFYNAYGEVLEMQDRHAHLLSYKDDDYLHVILCASILHHYSDQDIETLKELLVKFYYQDWVAGQTKTTRSQTCCNIINVLKEKKSMDYITSIVKEYLDDKNITQRFKDNLKDSNLYTKFYFINGKTAKKNSWVKPILILVEYFMSDNANPACIKMDDDLHVERILPQNPDPSSQWMKDFSEEERGLYTHSLANLTLLGGKKNTKALSQALNQDFKEKKEIYMGKTIMLDNKKTFRVMTCYDMTKNDVCRYTEWTPTSLEKRKESEGHHHHHH | not soluble |
| DARFSLGGYAGGMYDVHVKNSWYVQPQLLFTYEEFRSKTRLGTDSFFSKFNLELPILASYNVALNNKWNLHINAGPYLSYAMFGRDKSIDYAYGNGMHSSLGWWHQDFPDHFTYGGRAGVSLESEHFIYTIDGKCSLRKRPFGRSVSLSAGVGYKF | not soluble |
| MSSNECFKCGRSGHWARECPTGGGRGRGMRSRGRGFQFVSSSLPDICYRCGESGHLAKDCDLQEDACYNCGRGGHIAKDCKEPKREREQCCYNCGKPGHLARDCDHADEQKCYSCGEFGHIQKDCTKVKCYRCGETGHVAINCSKTSEVNCYRCGESGHLARECTIEATA | not soluble |
| PSHSGAAIFEKVSGIIAINEDVSPAELTWRSTDGDKVHTVVLSTIDKLQATPASSEKMMLRLIGKVDESKKRKDNEGNEVVPKPQRHMFSFNNRTVMDNIKMTLQQIISRYKDAD | soluble |
